Reference: publication PMC5095980

Target: Human lactoferrin (human)
Assay: small angle neutron scattering (SANS); iron containing samples in solution, 7 °C: iron saturated Lf (L3770; 100 mM MES, 150 mM NaCl, D2O) at pD 5 and pD 7, and partially saturated Lf (L3770 in the EDTA buffer, pD 5); concentration series 2.5-50 mg/ml, form factor extrapolated to c = 0, aggregates modelled by a Guinier term added to the monomer form factor

Human lactoferrin (natural protein)
stoichiometry N: 10 monomers
